Target: T1, soluble human FcγRIIb (human, UniProt P31994 43-217, limits assumed)
T1 construct: soluble His-tagged form; also called hFcγRIIb
T1 sequence (looked up): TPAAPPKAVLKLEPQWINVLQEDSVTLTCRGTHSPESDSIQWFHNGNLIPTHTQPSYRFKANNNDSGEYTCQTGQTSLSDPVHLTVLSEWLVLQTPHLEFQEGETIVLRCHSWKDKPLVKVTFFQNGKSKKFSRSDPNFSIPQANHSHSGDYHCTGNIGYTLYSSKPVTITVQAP
Assay: SPR, Ab-IgE complex over captured hFcγRIIb, pH 7.4, 25C
Procedure: Fc region variant-containing antibody binding assays between soluble human FcγRIIb (a.k.a. “hFcγRIIb”) and antigen-antibody complexes were performed using BIACORE® T200 (GE Healthcare). Soluble hFcγRIIb was produced in the form of a His-tagged molecule using methods known in the art. An appropriate amount of an anti-His antibody was fixed onto Sensor chip CM5 (GE Healthcare) by the amine coupling method using a His capture kit (GE Healthcare) to capture hFcγRIIb. Next, an antibody-antigen complex and a running buffer (as a reference solution) was injected, and interaction was allowed to take place with the hFcγRIIb captured onto the sensor chip. 20 mM N-(2-Acetamido)-2-aminoethanesulfonic acid, 150 mM NaCl, 1.2 mM CaCl₂, and 0.05% (w/v) Tween 20 at pH 7.4 was used as the running buffer, and the respective buffer was also used to dilute the soluble hFcγRIIb. To regenerate the sensor chip, 10 mM glycine-HCl at pH 1.5 was used. All measurements were carried out at 25° C. Analyses were performed based on binding (RU) calculated from sensorgrains obtained by the measurements, and relative values when the binding amount of P600 was defined as 1.00 are shown. To calculate the parameters, the BIACORE® T100 Evaluation Software (GE Healthcare) was used.

| Binder | relative binding (RU), P600=1.00 [fold] |
| --- | --- |
| Ab1H-P600/Ab1L (antibody, human IgG1, kappa, name in EU numbering, copies: 2 + 2) heavy: not shown light: DIQMTQSPSSVSASVGDRVTITCQASESIYSGLAWYQQKPGQPPKLLIYDHSTLASGVPSRFSGSGSGTEYALTISSLQPEDFATYYCQHADYAHHSDNVFGGGTKVEIKRTVAAPSVFIFPPSDEQLKSGTASVVCLLNNFYPREAKVQWKVDNALQSGNSQESVTEQDSKDSTYSLSSTLTLSKADYEKHKVYACEVTHQGLSSPVTKSFNRGEC | 1 |
| Ab1H-P828/Ab1L (antibody, human IgG1, kappa, name in EU numbering, copies: 2 + 2) heavy: not shown light: DIQMTQSPSSVSASVGDRVTITCQASESIYSGLAWYQQKPGQPPKLLIYDHSTLASGVPSRFSGSGSGTEYALTISSLQPEDFATYYCQHADYAHHSDNVFGGGTKVEIKRTVAAPSVFIFPPSDEQLKSGTASVVCLLNNFYPREAKVQWKVDNALQSGNSQESVTEQDSKDSTYSLSSTLTLSKADYEKHKVYACEVTHQGLSSPVTKSFNRGEC | 1.27 |
| Ab1H-P829/Ab1L (antibody, human IgG1, kappa, name in EU numbering, copies: 2 + 2) heavy: QVQLVESGGGLVQPGGSLRLSCAASGFTLSNHDMTWVRQAPGKGLEYVSIINTYGNHWYANWASGRFTISRDNSKNTVYLQIDSLRAEDTATYYCARETHHGSSGIDHWGQGTLVTVSSASTKGPSVFPLAPSSKSTSGGTAALGCLVKDYFPEPVTVSWNSGALTSGVHTFPAVLQSSGLYSLSSVVTVPSSSLGTQTYICNVNHKPSNTKVDKKVEPKSCDKTHTCPPCPAPELLGGDSVFLFPPKPKDTLMISRTPEVTCVVVDVSHEDPEVKFNWYVDGVEVHNAKTKPREEQYNATYRVVSVLTVLHQDWLNGKEYKCKVSNKALPAPIEKTIRKAKGQPREPQVYTLPPSREEMTKNQVSLTCLVKGFYPSDIAVEWESNGQPENNYKTTPPVLDSDGSFFLYSKLTVDKSRWQQGNVFSCSVMHEALHNHYTQKSLSLSP light: DIQMTQSPSSVSASVGDRVTITCQASESIYSGLAWYQQKPGQPPKLLIYDHSTLASGVPSRFSGSGSGTEYALTISSLQPEDFATYYCQHADYAHHSDNVFGGGTKVEIKRTVAAPSVFIFPPSDEQLKSGTASVVCLLNNFYPREAKVQWKVDNALQSGNSQESVTEQDSKDSTYSLSSTLTLSKADYEKHKVYACEVTHQGLSSPVTKSFNRGEC | 0.17 |
| Ab1H-P831/Ab1L (antibody, human IgG1, kappa, name in EU numbering, copies: 2 + 2) heavy: QVQLVESGGGLVQPGGSLRLSCAASGFTLSNHDMTWVRQAPGKGLEYVSIINTYGNHWYANWASGRFTISRDNSKNTVYLQIDSLRAEDTATYYCARETHHGSSGIDHWGQGTLVTVSSASTKGPSVFPLAPSSKSTSGGTAALGCLVKDYFPEPVTVSWNSGALTSGVHTFPAVLQSSGLYSLSSVVTVPSSSLGTQTYICNVNHKPSNTKVDKKVEPKSCDKTHTCPPCPAPELLGGDSVFLFPPKPKDTLMISRTPEVTCVVVDVSHEDPEVKFNWYVDGVEVHNAKTKPREEQYNATYRVVSVLTVLHQDWLNGKEYKCKVSNKALPAPIEKTISKAKGQPREPQVYTLPPSREEMTKNQVSLTCLVKGFYPSDIAVEWESNGQRENNYKTTPPVLDSDGSFFLYSKLTVDKSRWQQGNVFSCSVMHEALHNHYTQKSLSLSP light: DIQMTQSPSSVSASVGDRVTITCQASESIYSGLAWYQQKPGQPPKLLIYDHSTLASGVPSRFSGSGSGTEYALTISSLQPEDFATYYCQHADYAHHSDNVFGGGTKVEIKRTVAAPSVFIFPPSDEQLKSGTASVVCLLNNFYPREAKVQWKVDNALQSGNSQESVTEQDSKDSTYSLSSTLTLSKADYEKHKVYACEVTHQGLSSPVTKSFNRGEC | 3.85 |
| Ab1H-P837/Ab1L (antibody, human IgG1, kappa, name in EU numbering) heavy: QVQLVESGGGLVQPGGSLRLSCAASGFTLSNHDMTWVRQAPGKGLEYVSIINTYGNHWYANWASGRFTISRDNSKNTVYLQIDSLRAEDTATYYCARETHHGSSGIDHWGQGTLVTVSSASTKGPSVFPLAPSSKSTSGGTAALGCLVKDYFPEPVTVSWNSGALTSGVHTFPAVLQSSGLYSLSSVVTVPSSSLGTQTYICNVNHKPSNTKVDKKVEPKSCDKTHTCPPCPAPELLGGDSVFLFPPKPKDTLMISRTPEVTCVVVDVSHEDPEVKFNWYVDGVEVHNAKTKPREEQYNATYRVVSVLTVLHQDWLNGKEYKCKVSNKALPAPIEKTISKAKGQPRRPQVYTLPPSREEMTKNQVSLTCLVKGFYPSDIAVEWESNGQPENNYKTTPPVLDSDGSFFLYSKLTVDKSRWQQGNVFSCSVMHEALHNHYTQKSLSLSP light: DIQMTQSPSSVSASVGDRVTITCQASESIYSGLAWYQQKPGQPPKLLIYDHSTLASGVPSRFSGSGSGTEYALTISSLQPEDFATYYCQHADYAHHSDNVFGGGTKVEIKRTVAAPSVFIFPPSDEQLKSGTASVVCLLNNFYPREAKVQWKVDNALQSGNSQESVTEQDSKDSTYSLSSTLTLSKADYEKHKVYACEVTHQGLSSPVTKSFNRGEC | 1.88 |
| Ab1H-P840/Ab1L (antibody, human IgG1, kappa, name in EU numbering, copies: 2 + 2) heavy: QVQLVESGGGLVQPGGSLRLSCAASGFTLSNHDMTWVRQAPGKGLEYVSIINTYGNHWYANWASGRFTISRDNSKNTVYLQIDSLRAEDTATYYCARETHHGSSGIDHWGQGTLVTVSSASTKGPSVFPLAPSSKSTSGGTAALGCLVKDYFPEPVTVSWNSGALTSGVHTFPAVLQSSGLYSLSSVVTVPSSSLGTQTYICNVNHKPSNTKVDKKVEPKSCDKTHTCPPCPAPELLGGDSVFLFPPKPKDTLMISRTPEVTCVVVDVSHEDPEVKFNWYVDGVEVHNAKTKPREEQYNATYRVVSVLTVLHQDWLNGKEYKCKVSNKALPAPIEKTISKAKGQPREPQVYTLPPSREEMKKNQVSLTCLVKGFYPSDIAVEWESNGQPENNYKTTPPVLDSDGSFFLYSKLTVDKSRWQQGNVFSCSVMHEALHNHYTQKSLSLSP light: DIQMTQSPSSVSASVGDRVTITCQASESIYSGLAWYQQKPGQPPKLLIYDHSTLASGVPSRFSGSGSGTEYALTISSLQPEDFATYYCQHADYAHHSDNVFGGGTKVEIKRTVAAPSVFIFPPSDEQLKSGTASVVCLLNNFYPREAKVQWKVDNALQSGNSQESVTEQDSKDSTYSLSSTLTLSKADYEKHKVYACEVTHQGLSSPVTKSFNRGEC | 2.25 |
| Ab1H-P841/Ab1L (antibody, human IgG1, kappa, name in EU numbering, copies: 2 + 2) heavy: QVQLVESGGGLVQPGGSLRLSCAASGFTLSNHDMTWVRQAPGKGLEYVSIINTYGNHWYANWASGRFTISRDNSKNTVYLQIDSLRAEDTATYYCARETHHGSSGIDHWGQGTLVTVSSASTKGPSVFPLAPSSKSTSGGTAALGCLVKDYFPEPVTVSWNSGALTSGVHTFPAVLQSSGLYSLSSVVTVPSSSLGTQTYICNVNHKPSNTKVDKKVEPKSCDKTHTCPPCPAPELLGGDSVFLFPPKPKDTLMISRTPEVTCVVVDVSHEDPEVKFNWYVDGVEVHNAKTKPREEQYNATYRVVSVLTVLHQDWLNGKEYKCKVSNKALPAPIEKTISKAKGQPREPQVYTLPPSREEMTKRQVSLTCLVKGFYPSDIAVEWESNGQPENNYKTTPPVLDSDGSFFLYSKLTVDKSRWQQGNVFSCSVMHEALHNHYTQKSLSLSP light: DIQMTQSPSSVSASVGDRVTITCQASESIYSGLAWYQQKPGQPPKLLIYDHSTLASGVPSRFSGSGSGTEYALTISSLQPEDFATYYCQHADYAHHSDNVFGGGTKVEIKRTVAAPSVFIFPPSDEQLKSGTASVVCLLNNFYPREAKVQWKVDNALQSGNSQESVTEQDSKDSTYSLSSTLTLSKADYEKHKVYACEVTHQGLSSPVTKSFNRGEC | 1.86 |
| Ab1H-P842/Ab1L (antibody, human IgG1, kappa, name in EU numbering, copies: 2 + 2) heavy: QVQLVESGGGLVQPGGSLRLSCAASGFTLSNHDMTWVRQAPGKGLEYVSIINTYGNHWYANWASGRFTISRDNSKNTVYLQIDSLRAEDTATYYCARETHHGSSGIDHWGQGTLVTVSSASTKGPSVFPLAPSSKSTSGGTAALGCLVKDYFPEPVTVSWNSGALTSGVHTFPAVLQSSGLYSLSSVVTVPSSSLGTQTYICNVNHKPSNTKVDKKVEPKSCDKTHTCPPCPAPELLGGDSVFLFPPKPKDTLMISRTPEVTCVVVDVSHEDPEVKFNWYVDGVEVHNAKTKPREEQYNATYRVVSVLTVLHQDWLNGKEYKCKVSNKALPAPIEKTISKAKGQPREPQVYTLPPSREEMTKNKVSLTCLVKGFYPSDIAVEWESNGQPENNYKTTPPVLDSDGSFFLYSKLTVDKSRWQQGNVFSCSVMHEALHNHYTQKSLSLSP light: DIQMTQSPSSVSASVGDRVTITCQASESIYSGLAWYQQKPGQPPKLLIYDHSTLASGVPSRFSGSGSGTEYALTISSLQPEDFATYYCQHADYAHHSDNVFGGGTKVEIKRTVAAPSVFIFPPSDEQLKSGTASVVCLLNNFYPREAKVQWKVDNALQSGNSQESVTEQDSKDSTYSLSSTLTLSKADYEKHKVYACEVTHQGLSSPVTKSFNRGEC | 2.37 |
| Ab1H-P843/Ab1L (antibody, human IgG1, kappa, name in EU numbering, copies: 2 + 2) heavy: QVQLVESGGGLVQPGGSLRLSCAASGFTLSNHDMTWVRQAPGKGLEYVSIINTYGNHWYANWASGRFTISRDNSKNTVYLQIDSLRAEDTATYYCARETHHGSSGIDHWGQGTLVTVSSASTKGPSVFPLAPSSKSTSGGTAALGCLVKDYFPEPVTVSWNSGALTSGVHTFPAVLQSSGLYSLSSVVTVPSSSLGTQTYICNVNHKPSNTKVDKKVEPKSCDKTHTCPPCPAPELLGGDSVFLFPPKPKDTLMISRTPEVTCVVVDVSHEDPEVKFNWYVDGVEVHNAKTKPREEQYNATYRVVSVLTVLHQDWLNGKEYKCKVSNKALPAPIEKTISKAKGQPREPQVYTLPPSREEMTKNQVSLTCLVKGFYPSDIAVRWESNGQPENNYKTTPPVLDSDGSFFLYSKLTVDKSRWQQGNVFSCSVMHEALHNHYTQKSLSLSP light: DIQMTQSPSSVSASVGDRVTITCQASESIYSGLAWYQQKPGQPPKLLIYDHSTLASGVPSRFSGSGSGTEYALTISSLQPEDFATYYCQHADYAHHSDNVFGGGTKVEIKRTVAAPSVFIFPPSDEQLKSGTASVVCLLNNFYPREAKVQWKVDNALQSGNSQESVTEQDSKDSTYSLSSTLTLSKADYEKHKVYACEVTHQGLSSPVTKSFNRGEC | -0.04 |

From patent US20180258163A1 (Chugai, published 2018)
